Assay results: PMC7884431

Experiments:
[1] = tested on: RFL79 (Rf1) (Triticum aestivum (accession R197 for the cloned gene; source of the REMSA construct not stated)); test: EMSA; details: apparent Kd; protein mostly aggregated; 1 nM probe; Binding buffer 1x THE (34 mM Tris, 66 mM HEPES, 0.1 mM EDTA, pH 8), 0.2 M NaCl, 5 mM DTT, 5 mg/mL heparin, 0.1 mg/mL BSA, RNaseOUT (10 uL) + 5 uL protein in …
[2] = tested on: RFL29a (Rf3) (Triticum aestivum (accession R0934F for the cloned gene; source of the REMSA construct not stated)); test: EMSA; details: apparent Kd; protein mostly aggregated; 1 nM probe; Binding buffer 1x THE (34 mM Tris, 66 mM HEPES, 0.1 mM EDTA, pH 8), 0.2 M NaCl, 5 mM DTT, 5 mg/mL heparin, 0.1 mg/mL BSA, RNaseOUT (10 uL) + 5 uL protein in …

Row | Sequence | Kd [1] | Kd [2]
1 | CUGUAAAUCAAGAAUUCCUCGAAGA [BS RFL79 (orf279)] | 1 µM | 
2 | CUUCACCUGUGCACUUAUUUAUGUAU [BS RFL29a (orf279)] |  | 1 µM
